*1 amine or outer side, *2 acyl side, *3 side chain or, on linkers, in order; H or OH if unused. Where no end group is shown, it is not given here. Side-chain parts run from the residue outwards. [ ]: non-standard residue; d: D form. The star is where a group is joined. C18 diacid = O=C(O)CCCCCCCCCCCCCCCCC(=O)*; C16 diacid = O=C(O)CCCCCCCCCCCCCCC(=O)*; γGlu = O=C(O)[C@H](CCC(=O)[*:2])N[*:1]; αMeL = CC(C)C[C@](C)(N)C(=O)O; Pentanoyl = CCCCC(=O)*; AEEA = NCCOCCOCC(=O)O; Aib = CC(C)(N)C(=O)O
T1: CRF1R receptor (UniProt P34998 24-415, limits assumed)
T1 sequence (looked up): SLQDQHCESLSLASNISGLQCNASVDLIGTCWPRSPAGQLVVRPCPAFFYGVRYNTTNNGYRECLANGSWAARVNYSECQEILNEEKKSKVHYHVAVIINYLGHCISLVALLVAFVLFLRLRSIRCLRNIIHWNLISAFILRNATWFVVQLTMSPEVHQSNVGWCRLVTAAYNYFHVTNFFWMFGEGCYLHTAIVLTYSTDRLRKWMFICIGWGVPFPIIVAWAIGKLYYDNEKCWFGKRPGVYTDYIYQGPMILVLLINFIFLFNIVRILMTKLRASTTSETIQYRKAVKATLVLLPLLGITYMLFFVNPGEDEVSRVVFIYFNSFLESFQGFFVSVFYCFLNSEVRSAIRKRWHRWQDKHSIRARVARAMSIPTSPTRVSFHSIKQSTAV


What was measured:
CRF1R receptor = target: T1, CRF1R receptor; test: cell-based or functional assay
[1] = target: human corticotropin-releasing factor 2a (CRF2a receptor) (human), Q13324; test: cell-based or functional assay
human corticotropin-releasing factor 2a (CRF2a receptor) (human), Q13324, sequence (Q13324 20-411): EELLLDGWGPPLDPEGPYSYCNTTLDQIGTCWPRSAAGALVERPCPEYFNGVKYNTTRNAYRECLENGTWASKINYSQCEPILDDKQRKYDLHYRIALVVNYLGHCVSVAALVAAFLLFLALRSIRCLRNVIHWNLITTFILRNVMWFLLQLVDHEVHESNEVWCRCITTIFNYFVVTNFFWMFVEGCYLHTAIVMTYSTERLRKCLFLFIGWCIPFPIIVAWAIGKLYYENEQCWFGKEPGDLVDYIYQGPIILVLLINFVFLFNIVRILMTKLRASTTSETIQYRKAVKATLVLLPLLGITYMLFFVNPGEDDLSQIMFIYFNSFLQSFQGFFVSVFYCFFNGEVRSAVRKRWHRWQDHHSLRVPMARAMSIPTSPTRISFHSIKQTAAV

Binder | Emax (% I) (CRF1R receptor) [%] | EC50 [nM] (cAMP) [1] | EC50 (CRF1R receptor) [nM]
Ac-IVLSLD[dV]PIK[αMeL]K([γGlu-C16 diacid])KILLEQEKQKKQREQAETN[Aib]QILAQV-NH2 (SMILES CC[C@H](C)[C@H](NC(C)=O)C(=O)N[C@H](C(=O)N[C@@H](CC(C)C)C(=O)N[C@@H](CO)C(=O)N[C@@H](CC(C)C)C(=O)N[C@@H](CC(=O)O)C(=O)N[C@@H](C(=O)N1CCC[C@H]1C(=O)N[C@H](C(=O)N[C@@H](CCCCN)C(=O)N[C@@](C)(CC(C)C)C(=O)N[C@@H](CCCCNC(=O)CC[C@H](NC(=O)CCCCCCCCCCCCCCC(=O)O)C(=O)O)C(=O)N[C@@H](CCCCN)C(=O)N[C@H](C(=O)N[C@@H](CC(C)C)C(=O)N[C@@H](CC(C)C)C(=O)N[C@@H](CCC(=O)O)C(=O)N[C@@H](CCC(N)=O)C(=O)N[C@@H](CCC(=O)O)C(=O)N[C@@H](CCCCN)C(=O)N[C@@H](CCC(N)=O)C(=O)N[C@@H](CCCCN)C(=O)N[C@@H](CCCCN)C(=O)N[C@@H](CCC(N)=O)C(=O)N[C@@H](CCCNC(=N)N)C(=O)N[C@@H](CCC(=O)O)C(=O)N[C@@H](CCC(N)=O)C(=O)N[C@@H](C)C(=O)N[C@@H](CCC(=O)O)C(=O)N[C@H](C(=O)N[C@@H](CC(N)=O)C(=O)NC(C)(C)C(=O)N[C@@H](CCC(N)=O)C(=O)N[C@H](C(=O)N[C@@H](CC(C)C)C(=O)N[C@@H](C)C(=O)N[C@@H](CCC(N)=O)C(=O)N[C@H](C(N)=O)C(C)C)[C@@H](C)CC)[C@@H](C)O)[C@@H](C)CC)[C@@H](C)CC)C(C)C)C(C)C) [SEQ ID NO 44] | 5 | 0.25 | 
Ac-IVLSLD[dV]PIK[αMeL]K([γGlu-C16 diacid])KILLEQEKQKKQREQAETDKQILAQV-NH2 (SMILES CC[C@H](C)[C@H](NC(C)=O)C(=O)N[C@H](C(=O)N[C@@H](CC(C)C)C(=O)N[C@@H](CO)C(=O)N[C@@H](CC(C)C)C(=O)N[C@@H](CC(=O)O)C(=O)N[C@@H](C(=O)N1CCC[C@H]1C(=O)N[C@H](C(=O)N[C@@H](CCCCN)C(=O)N[C@@](C)(CC(C)C)C(=O)N[C@@H](CCCCNC(=O)CC[C@H](NC(=O)CCCCCCCCCCCCCCC(=O)O)C(=O)O)C(=O)N[C@@H](CCCCN)C(=O)N[C@H](C(=O)N[C@@H](CC(C)C)C(=O)N[C@@H](CC(C)C)C(=O)N[C@@H](CCC(=O)O)C(=O)N[C@@H](CCC(N)=O)C(=O)N[C@@H](CCC(=O)O)C(=O)N[C@@H](CCCCN)C(=O)N[C@@H](CCC(N)=O)C(=O)N[C@@H](CCCCN)C(=O)N[C@@H](CCCCN)C(=O)N[C@@H](CCC(N)=O)C(=O)N[C@@H](CCCNC(=N)N)C(=O)N[C@@H](CCC(=O)O)C(=O)N[C@@H](CCC(N)=O)C(=O)N[C@@H](C)C(=O)N[C@@H](CCC(=O)O)C(=O)N[C@H](C(=O)N[C@@H](CC(=O)O)C(=O)N[C@@H](CCCCN)C(=O)N[C@@H](CCC(N)=O)C(=O)N[C@H](C(=O)N[C@@H](CC(C)C)C(=O)N[C@@H](C)C(=O)N[C@@H](CCC(N)=O)C(=O)N[C@H](C(N)=O)C(C)C)[C@@H](C)CC)[C@@H](C)O)[C@@H](C)CC)[C@@H](C)CC)C(C)C)C(C)C) [SEQ ID NO 53] | 5 | 8.05 | 
Pentanoyl-VLSLD[dV]PIKLK([AEEA-AEEA-γGlu-γGlu-C18 diacid])Q[Aib]LLKQERQKKQREQAEKNVQILEQV-NH2 (SMILES CCCCC(=O)N[C@H](C(=O)N[C@@H](CC(C)C)C(=O)N[C@@H](CO)C(=O)N[C@@H](CC(C)C)C(=O)N[C@@H](CC(=O)O)C(=O)N[C@@H](C(=O)N1CCC[C@H]1C(=O)N[C@H](C(=O)N[C@@H](CCCCN)C(=O)N[C@@H](CC(C)C)C(=O)N[C@@H](CCCCNC(=O)COCCOCCNC(=O)COCCOCCNC(=O)CC[C@H](NC(=O)CC[C@H](NC(=O)CCCCCCCCCCCCCCCCC(=O)O)C(=O)O)C(=O)O)C(=O)N[C@@H](CCC(N)=O)C(=O)NC(C)(C)C(=O)N[C@@H](CC(C)C)C(=O)N[C@@H](CC(C)C)C(=O)N[C@@H](CCCCN)C(=O)N[C@@H](CCC(N)=O)C(=O)N[C@@H](CCC(=O)O)C(=O)N[C@@H](CCCNC(=N)N)C(=O)N[C@@H](CCC(N)=O)C(=O)N[C@@H](CCCCN)C(=O)N[C@@H](CCCCN)C(=O)N[C@@H](CCC(N)=O)C(=O)N[C@@H](CCCNC(=N)N)C(=O)N[C@@H](CCC(=O)O)C(=O)N[C@@H](CCC(N)=O)C(=O)N[C@@H](C)C(=O)N[C@@H](CCC(=O)O)C(=O)N[C@@H](CCCCN)C(=O)N[C@@H](CC(N)=O)C(=O)N[C@H](C(=O)N[C@@H](CCC(N)=O)C(=O)N[C@H](C(=O)N[C@@H](CC(C)C)C(=O)N[C@@H](CCC(=O)O)C(=O)N[C@@H](CCC(N)=O)C(=O)N[C@H](C(N)=O)C(C)C)[C@@H](C)CC)C(C)C)[C@@H](C)CC)C(C)C)C(C)C) [SEQ ID NO 29] | 6 | 37.2 | > 250

The remaining lines, values ahead:

Emax (% I) (CRF1R receptor) [%] | EC50 [nM] (cAMP) [1] | EC50 (CRF1R receptor) [nM] | Binder
9 | 0.26 |  | Ac-IVLSLD[dV]PIK[αMeL]K([γGlu-C16 diacid])KILLEQEKQKKQREQAETNVQILAQV-NH2 (SMILES CC[C@H](C)[C@H](NC(C)=O)C(=O)N[C@H](C(=O)N[C@@H](CC(C)C)C(=O)N[C@@H](CO)C(=O)N[C@@H](CC(C)C)C(=O)N[C@@H](CC(=O)O)C(=O)N[C@@H](C(=O)N1CCC[C@H]1C(=O)N[C@H](C(=O)N[C@@H](CCCCN)C(=O)N[C@@](C)(CC(C)C)C(=O)N[C@@H](CCCCNC(=O)CC[C@H](NC(=O)CCCCCCCCCCCCCCC(=O)O)C(=O)O)C(=O)N[C@@H](CCCCN)C(=O)N[C@H](C(=O)N[C@@H](CC(C)C)C(=O)N[C@@H](CC(C)C)C(=O)N[C@@H](CCC(=O)O)C(=O)N[C@@H](CCC(N)=O)C(=O)N[C@@H](CCC(=O)O)C(=O)N[C@@H](CCCCN)C(=O)N[C@@H](CCC(N)=O)C(=O)N[C@@H](CCCCN)C(=O)N[C@@H](CCCCN)C(=O)N[C@@H](CCC(N)=O)C(=O)N[C@@H](CCCNC(=N)N)C(=O)N[C@@H](CCC(=O)O)C(=O)N[C@@H](CCC(N)=O)C(=O)N[C@@H](C)C(=O)N[C@@H](CCC(=O)O)C(=O)N[C@H](C(=O)N[C@@H](CC(N)=O)C(=O)N[C@H](C(=O)N[C@@H](CCC(N)=O)C(=O)N[C@H](C(=O)N[C@@H](CC(C)C)C(=O)N[C@@H](C)C(=O)N[C@@H](CCC(N)=O)C(=O)N[C@H](C(N)=O)C(C)C)[C@@H](C)CC)C(C)C)[C@@H](C)O)[C@@H](C)CC)[C@@H](C)CC)C(C)C)C(C)C) [SEQ ID NO 50]
6 | 0.7 |  | Ac-VLSLD[dV]PIK[αMeL]K([γGlu-C16 diacid])KILLEQEKQKKQREQAETN[Aib]QILAQV-NH2 (SMILES CC[C@H](C)[C@H](NC(=O)[C@H](CCC(N)=O)NC(=O)C(C)(C)NC(=O)[C@H](CC(N)=O)NC(=O)[C@@H](NC(=O)[C@H](CCC(=O)O)NC(=O)[C@H](C)NC(=O)[C@H](CCC(N)=O)NC(=O)[C@H](CCC(=O)O)NC(=O)[C@H](CCCNC(=N)N)NC(=O)[C@H](CCC(N)=O)NC(=O)[C@H](CCCCN)NC(=O)[C@H](CCCCN)NC(=O)[C@H](CCC(N)=O)NC(=O)[C@H](CCCCN)NC(=O)[C@H](CCC(=O)O)NC(=O)[C@H](CCC(N)=O)NC(=O)[C@H](CCC(=O)O)NC(=O)[C@H](CC(C)C)NC(=O)[C@H](CC(C)C)NC(=O)[C@@H](NC(=O)[C@H](CCCCN)NC(=O)[C@H](CCCCNC(=O)CC[C@H](NC(=O)CCCCCCCCCCCCCCC(=O)O)C(=O)O)NC(=O)[C@](C)(CC(C)C)NC(=O)[C@H](CCCCN)NC(=O)[C@@H](NC(=O)[C@@H]1CCCN1C(=O)[C@H](NC(=O)[C@H](CC(=O)O)NC(=O)[C@H](CC(C)C)NC(=O)[C@H](CO)NC(=O)[C@H](CC(C)C)NC(=O)[C@@H](NC(C)=O)C(C)C)C(C)C)[C@@H](C)CC)[C@@H](C)CC)[C@@H](C)O)C(=O)N[C@@H](CC(C)C)C(=O)N[C@@H](C)C(=O)N[C@@H](CCC(N)=O)C(=O)N[C@H](C(N)=O)C(C)C) [SEQ ID NO 46]
47 | 0.13 | 185 | Ac-IVLSLD[dV]PIKLK([γGlu-C16 diacid])QILLKQERQKKQREQAEKN[Aib]QILEQV-NH2 (SMILES CC[C@H](C)[C@H](NC(C)=O)C(=O)N[C@H](C(=O)N[C@@H](CC(C)C)C(=O)N[C@@H](CO)C(=O)N[C@@H](CC(C)C)C(=O)N[C@@H](CC(=O)O)C(=O)N[C@@H](C(=O)N1CCC[C@H]1C(=O)N[C@H](C(=O)N[C@@H](CCCCN)C(=O)N[C@@H](CC(C)C)C(=O)N[C@@H](CCCCNC(=O)CC[C@H](NC(=O)CCCCCCCCCCCCCCC(=O)O)C(=O)O)C(=O)N[C@@H](CCC(N)=O)C(=O)N[C@H](C(=O)N[C@@H](CC(C)C)C(=O)N[C@@H](CC(C)C)C(=O)N[C@@H](CCCCN)C(=O)N[C@@H](CCC(N)=O)C(=O)N[C@@H](CCC(=O)O)C(=O)N[C@@H](CCCNC(=N)N)C(=O)N[C@@H](CCC(N)=O)C(=O)N[C@@H](CCCCN)C(=O)N[C@@H](CCCCN)C(=O)N[C@@H](CCC(N)=O)C(=O)N[C@@H](CCCNC(=N)N)C(=O)N[C@@H](CCC(=O)O)C(=O)N[C@@H](CCC(N)=O)C(=O)N[C@@H](C)C(=O)N[C@@H](CCC(=O)O)C(=O)N[C@@H](CCCCN)C(=O)N[C@@H](CC(N)=O)C(=O)NC(C)(C)C(=O)N[C@@H](CCC(N)=O)C(=O)N[C@H](C(=O)N[C@@H](CC(C)C)C(=O)N[C@@H](CCC(=O)O)C(=O)N[C@@H](CCC(N)=O)C(=O)N[C@H](C(N)=O)C(C)C)[C@@H](C)CC)[C@@H](C)CC)[C@@H](C)CC)C(C)C)C(C)C) [SEQ ID NO 16]
13 | 0.65 | 100 | IVLSLD[dV]PIKLK([AEEA-AEEA-γGlu-C16 diacid])QILLKQERQKKQREQAEKNKQILEQV-NH2 [SEQ ID NO 148]

Reference: patent US20260001928A1 (CORTERIA PHARMACEUTICALS, priority 2022, published 2026)
